How the values were obtained:
[1] = system: Pta variant with HRV protease cleavage motif inserted after amino acid 387
[2] = system: Pgi with HRV 3C recognition sequence inserted after amino acid 531
[3] = system: wild-type Pgi protein (phosphoglucose isomerase of Escherichia coli)
[4] = system: Pgi with HRV 3C recognition sequence inserted after amino acid 529
[5] = system: Pgi with HRV 3C recognition sequence inserted after amino acid 532
[6] = system: Pta variant with HRV protease cleavage motif inserted after amino acid 409
[7] = system: Pgi with HRV 3C recognition sequence inserted after amino acid 109
[8] = system: Pgi with HRV 3C recognition sequence inserted after amino acid 530
[9] = system: Pgi with HRV 3C recognition sequence inserted after amino acid 410
[10] = system: Pgi with HRV 3C recognition sequence inserted after amino acid 108
[11] = system: Pgi with HRV 3C recognition sequence inserted after amino acid 528
[12] = system: Pgi with HRV 3C recognition sequence inserted after amino acid 527
[13] = system: Pgi with HRV 3C recognition sequence inserted after amino acid 110
[14] = system: Pgi-HRV-I526 (Pgi with HRV 3C recognition sequence inserted after amino acid 526)
[15] = system: Pta variant with HRV protease cleavage motif inserted after amino acid 382
[16] = system: Pta variant with HRV protease cleavage motif inserted after amino acid 381
[17] = system: Pgi with HRV 3C recognition sequence inserted after amino acid 138

In the case of “exogenous HRV 3C protease (ACCELAGEN H0101S)”, the “in vitro Pta activity with or without exogenously supplied HRV protease, 30 minutes at 37 C” value [1] is reported as “In all cases, Pta activity was dramatically reduced upon incubation with HRV protease”, the Pgi Activity/Activity wild type, +protease; -protease value 0.56 [2] is reported as 0.28 and the Pgi activity in clarified lysate, +protease (10 units exogenous HRV 3C protease, 4 h, 37 C); -protease value 1.29 (µmol/min/mg total protein) [2] is reported as 0.67. It also gave a Pgi Activity/Activity wild type, +protease; -protease value 1 [3] of 1, a Pgi activity in clarified lysate, +protease (10 units exogenous HRV 3C protease, 4 h, 37 C); -protease value 2.31 (µmol/min/mg total protein) [3] of 2.37 and a Pgi Activity/Activity wild type, +protease; -protease value 0.64 [4] of 0.5. It also gave a Pgi activity in clarified lysate, +protease (10 units exogenous HRV 3C protease, 4 h, 37 C); -protease value 1.48 (µmol/min/mg total protein) [4] of 1.19, a Pgi Activity/Activity wild type, +protease; -protease value 0.50 [5] of 0.22 and a Pgi activity in clarified lysate, +protease (10 units exogenous HRV 3C protease, 4 h, 37 C); -protease value 1.15 (µmol/min/mg total protein) [5] of 0.52. For the same substance, the “in vitro Pta activity with or without exogenously supplied HRV protease, 30 minutes at 37 C” value [6] was “In all cases, Pta activity was dramatically reduced upon incubation with HRV protease”, the Pgi Activity/Activity wild type, +protease; -protease value 1.10 [7] was 0.78 and the Pgi activity in clarified lysate, +protease (10 units exogenous HRV 3C protease, 4 h, 37 C); -protease value 2.54 (µmol/min/mg total protein) [7] was 1.86. It also gave a Pgi Activity/Activity wild type, +protease; -protease value 0.33 [8] of 0.12, a Pgi activity in clarified lysate, +protease (10 units exogenous HRV 3C protease, 4 h, 37 C); -protease value 0.77 (µmol/min/mg total protein) [8] of 0.29 and a Pgi Activity/Activity wild type, +protease; -protease value 0.50 [9] of 0.41. It also gave a Pgi activity in clarified lysate, +protease (10 units exogenous HRV 3C protease, 4 h, 37 C); -protease value 1.16 (µmol/min/mg total protein) [9] of 0.96, a Pgi Activity/Activity wild type, +protease; -protease value 0.94 [10] of 0.86 and a Pgi activity in clarified lysate, +protease (10 units exogenous HRV 3C protease, 4 h, 37 C); -protease value 2.16 (µmol/min/mg total protein) [10] of 2.03. The Pgi Activity/Activity wild type, +protease; -protease value 0.45 [11] was 0.26, the Pgi activity in clarified lysate, +protease (10 units exogenous HRV 3C protease, 4 h, 37 C); -protease value 1.04 (µmol/min/mg total protein) [11] was 0.63 and the Pgi Activity/Activity wild type, +protease; -protease value 0.84 [12] was 0.6. It also gave a Pgi activity in clarified lysate, +protease (10 units exogenous HRV 3C protease, 4 h, 37 C); -protease value 1.93 (µmol/min/mg total protein) [12] of 1.42, a Pgi Activity/Activity wild type, +protease; -protease value 0.92 [13] of 0.84 and a Pgi activity in clarified lysate, +protease (10 units exogenous HRV 3C protease, 4 h, 37 C); -protease value 2.13 (µmol/min/mg total protein) [13] of 1.99. The Pgi Activity/Activity wild type, +protease; -protease value 0.83 [14] was 0.19, the Pgi activity in clarified lysate, +protease (10 units exogenous HRV 3C protease, 4 h, 37 C); -protease value 1.92 (µmol/min/mg total protein) [14] was 0.44 and the “in vitro Pta activity with or without exogenously supplied HRV protease, 30 minutes at 37 C” value [15] was “In all cases, Pta activity was dramatically reduced upon incubation with HRV protease”. The “in vitro Pta activity with or without exogenously supplied HRV protease, 30 minutes at 37 C” value [16] was “In all cases, Pta activity was dramatically reduced upon incubation with HRV protease”, the Pgi Activity/Activity wild type, +protease; -protease value 0.27 [17] was 0.16 and the Pgi activity in clarified lysate, +protease (10 units exogenous HRV 3C protease, 4 h, 37 C); -protease value 0.62 (µmol/min/mg total protein) [17] was 0.37.

— patent publication US20150037868
